The values that follow come from patent US20160017037A1 (GlaxoSmithKline, published 2016).

Where “and” joins values, the source holds several entries; their conditions need not be identical. Equal values may be shown once.

Assay [1] has as its target T1, Recombinant human LAG-3 ECD-His6 (human, UniProt P18627 23-433).
T1 construct: also called LAG-3-His; recombinant human LAG-3-His
T1 sequence: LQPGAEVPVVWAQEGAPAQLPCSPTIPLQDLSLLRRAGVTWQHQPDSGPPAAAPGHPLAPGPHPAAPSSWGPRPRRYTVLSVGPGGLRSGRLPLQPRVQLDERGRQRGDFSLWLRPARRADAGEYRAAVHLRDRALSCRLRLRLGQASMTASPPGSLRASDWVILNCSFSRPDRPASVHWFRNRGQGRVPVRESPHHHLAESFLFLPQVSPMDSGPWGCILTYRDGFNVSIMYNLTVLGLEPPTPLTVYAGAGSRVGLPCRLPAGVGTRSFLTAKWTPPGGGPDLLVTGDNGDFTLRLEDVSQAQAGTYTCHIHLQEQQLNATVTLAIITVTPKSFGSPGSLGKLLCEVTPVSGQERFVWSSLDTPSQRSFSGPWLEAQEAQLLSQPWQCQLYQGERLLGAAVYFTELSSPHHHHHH
Nature of the assay: SPR Biacore T100, Anova comparison of KD. Here is the method: (§1) Wild type fucosylated and afucosylated antibodies were compared for their ability to bind to recombinant human LAG-3 ECD with a C-terminal His6 (SEQ ID NO:51) using the Biacore™ T100 (GE Healthcare™). Protein A was immobilised on a CM5 chip by primary amine coupling. This surface was then used to capture the humanised antibodies. Recombinant human LAG-3 ECD-His6 was then passed over the captured antibodies at 32, 8, 2, 0.5 and 0.125 nM and regeneration was carried out using 50 mM NaOH. The binding curves were double referenced with buffer injection (i.e. 0 nM) and the data was fitted to the T100 analysis software using the 1:1 model. The run was carried out at 25° C., using HBS-EP as the running buffer.
(§2) In order to investigate the statistical significance of this kinetic data, this experiment was repeated 3 times with the same batch of the four antibodies and the chimeric control. KD, ka and kd parameters were each log (base 10) transformed prior to separate statistical analyses. For each parameter, a mixed model analysis of variance CAnova′) was performed on transformed data, including terms for Run (random block effect) and Antibody.
(§3) From the Anova, geometric means were predicted for each antibody, along with statistically plausible ranges (95% confidence intervals) for each mean. Planned comparisons of antibodies were performed within the Anova. […]

Assay [2] has as its target T1, Recombinant human LAG-3 ECD-His6. Briefly: SPR Biacore T100, Anova comparison of kd. How it is done:
as §1, §2, §3
Background: Surface plasmon resonance follows binding to a sensor surface in real time, without labels.

Assay [3] addresses T2, recombinant soluble human FcγRIIIa V158 (human, UniProt P08637 17-208).
T2 construct: also called FcγRIIIa valine V158; CD16
Briefly: SPR ProteOn XPR36, His-tagged receptor captured on anti-poly-histidine IgG, equilibrium model. How it is done:
(§4) A goat anti-poly-histidine IgG was immobilised on a GLM biosensor chip by primary amine coupling. This surface was used as a capture surface for the poly-histidine tagged human Fc gamma receptors. […] The goat anti-poly-histidine IgG surface was regenerated with 100 mM phosphoric acid between interactions. The run was carried out on the ProteOn XPR36 Protein Array Interaction System at 25° C. and using HBS-EP as running buffer. Data was analysed for each receptor separately, setting a global R-max and using the Equilibrium Model inherent to the ProteOn's analysis software. Control molecules were run at the beginning and the end of the set of samples to be tested to ensure comparability of results. Data was compared from two experiments and hybrid control antibodies used as controls between experiments.

The target of assay [4] is T3, recombinant soluble human FcγRIIIa F158 (human, UniProt P08637 17-208).
T3 construct: also called FcγRIIIa phenylalanine F158; CD16
T3 sequence (P08637 17-208 limits assumed): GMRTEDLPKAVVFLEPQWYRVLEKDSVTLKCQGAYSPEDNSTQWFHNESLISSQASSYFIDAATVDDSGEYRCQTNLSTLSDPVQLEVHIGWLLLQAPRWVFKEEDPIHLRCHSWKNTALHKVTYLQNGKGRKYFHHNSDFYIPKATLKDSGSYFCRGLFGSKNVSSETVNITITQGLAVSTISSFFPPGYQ
The description is as above. How it is done:
as §4

Assay [5] concerns the target T4, Human LAG-3 on cells (human LAG-3 expressing EL4 cells; activated human CD3+ T cells) (human, UniProt P18627 23-525).
T4 sequence (looked up): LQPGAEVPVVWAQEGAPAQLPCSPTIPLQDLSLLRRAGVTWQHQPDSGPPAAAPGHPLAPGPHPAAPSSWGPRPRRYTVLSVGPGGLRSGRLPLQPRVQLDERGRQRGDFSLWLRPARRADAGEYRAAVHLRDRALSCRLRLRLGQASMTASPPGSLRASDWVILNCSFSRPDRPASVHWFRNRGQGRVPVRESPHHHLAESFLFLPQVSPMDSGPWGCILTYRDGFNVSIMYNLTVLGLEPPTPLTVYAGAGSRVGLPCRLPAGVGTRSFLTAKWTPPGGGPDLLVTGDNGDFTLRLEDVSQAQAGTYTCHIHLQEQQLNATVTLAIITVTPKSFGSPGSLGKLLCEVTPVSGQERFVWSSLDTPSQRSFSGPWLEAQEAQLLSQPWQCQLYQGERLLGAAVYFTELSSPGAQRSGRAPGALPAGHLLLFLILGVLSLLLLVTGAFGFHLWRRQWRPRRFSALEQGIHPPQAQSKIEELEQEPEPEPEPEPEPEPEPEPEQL
Nature of the assay: cell-based or functional assay.

T2 sequence (P08637 17-208 F176V limits assumed): as the sequence (P08637 17-208 limits assumed) above, with F160V counted along it

B1: H5L7BW (antibody, human IgG1, kappa)
heavy: not shown
light: DIQMTQSPSSLSASVGDRVTITCKSSQSLLNPSNQKNYLAWYQQKPGKAPKLLVYFASTRDSGVPSRFSGSGSGTDFTLTISSLQPEDFATYYCLQHFGTPPTFGQGTKLEIKRTVAAPSVFIFPPSDEQLKSGTASVVCLLNNFYPREAKVQWKVDNALQSGNSQESVTEQDSKDSTYSLSSTLTLSKADYEKHKVYACEVTHQGLSSPVTKSFNRGEC
modifications: afucosylated: no fucose on the core carbohydrate structure attached to Asn297
notes: Same plasmids as H5L7, expressed in the BioWa POTELLIGENT (FUT8 knock-out CHO) cell line; also called afucosylated antibody H5L7BW; afucosylated H5L7
In the case of B1, in assay [1], the “KD ratio against H5L7” value was determined as 1.05 ratio. Moreover, the “kd ratio against H5L7” value in assay [2] is 1.12 ratio. Also, the “fold improvement in affinity against H5L7” value in assay [3] and in assay [4] was around 10 fold in each case. Further, the “EC50 of depletion of antigen specific CD4 T cells by ADCC (primary human T cells, autologous NK cells, 18 h)” value in assay [5] is 14 µg/mL and 3.4 ng/mL. The “EC50 of depletion of antigen specific LAG-3 positive CD8 T cells by ADCC” value in assay [5] is 122 µg/mL and 0.0175 µg/mL.

B2: H5L7 (antibody, human IgG1, kappa)
heavy: not shown
light: B1 light
notes: Humanised IgG1/kappa of A9H12 (IMP731); also called fucosylated H5L7; non-ADCC enhanced variant H5L7
Take B2: the “KD ratio against IMP731” value in assay [1] was found to be 0.0774 ratio. Further, the “kd ratio against IMP731” value in assay [2] is 0.155 ratio.
